Laboratory results published in patent publication US20230414778A1, “COMBINATION OF ANTIBODY-DRUG CONJUGATE WITH ANTI-SIRPalpha ANTIBODY” (DAIICHI SANKYO COMPANY, LIMITED, priority 2020, published 2023).

Experiments:
cancer cells = conditions: known from literature; cited from earlier work
SIRPγ = SIRPγ (Homo sapiens, UniProt Q9P1W8); conditions: Patent References 1 to 3; cited from earlier work
[1] = system: all 10 types of SIRPα variant; conditions: Patent References 1 to 3; cited from earlier work
SIRPβ1 = SIRPβ1 (Homo sapiens, UniProt O00241); conditions: Patent References 1 to 3; cited from earlier work
SIRPα V1 = SIRPα V1 (Homo sapiens, UniProt P78324); conditions: Patent References 1 to 3; cited from earlier work
4T1-hmHER2 cells = assay: Antitumor study (1); type: in vivo, BALB/c mice; conditions: single administration, 10 mg/kg, Day 21
Experimental: Individuals having a tumor volume of beyond 3000 mm^3 were humanly killed from an ethical point of view for animal experiments.
The antibody-drug conjugate (1) (Drug-to-Antibody Ratio: 7.6) was diluted with PBS, and a dose of 10 mL/kg was intravenously administered to the tail vein.
To mouse breast cancer cell line 4T1 (CRL-2539) purchased from the American Type Culture Collection, a human/mouse chimera HER2 gene was transfected by use of a lentivirus vector to prepare 4T1-hmHER2 cells, which were put in use. The cells express a human/mouse chimera HER2 protein on the cell membrane. Then, 4T1-hmHER2 cells were suspended in PBS and 1.0×10^6 cells were subcutaneously inoculated into the right axilla of each of the BALB/c mice (Day 0). Four days later, the mice were randomly grouped (Day 4). The antibody-drug conjugate (1) was intravenously administered at a dose of 10 mg/kg on Day 4 and 11 (two times in total) to the tail vein. […] P value was expressed to four decimal places and the results satisfying P<0.05 (two-sided test) were determined as being significant.

CT26.WT-hTROP2 cells = assay: Antitumor study (2); type: in vivo, BALB/c mice; conditions: single administration, 10 mg/kg, Day 18
Experimental: Mouse: Female 6-week-old BALB/c mice (BALB/c AnNCrlCrlj) (bred by CHARLES RIVER LABORATORIES JAPAN, INC.) were subjected to experiments. Measurement and calculation formula: the long diameter and short diameter of tumors were measured twice a week with an electronic digital caliper (CD15-CX, manufactured by Mitutoyo Corporation), and the tumor volumes (mm^3) were calculated. The calculation formula is shown below: […] Individuals having a tumor volume of beyond 3000 mm^3 were humanely killed from an ethical point of view for animal experiments. […] An anti-SIRPα antibody (clone: 5C12) was diluted with PBS, and a dose of 10 mL/kg was intraperitoneally administered. […] The cells express a human TROP2 protein on the cell membrane. CT26.WT-hTROP2 cells were suspended in saline, and 2.0×10^6 cells were subcutaneously inoculated into the right axilla of each of the BALB/c mice (Day 0). Seven days later, the mice were randomly grouped (Day 7). […] The anti-SIRPα antibody (clone: 5C12) was intraperitoneally administered at a dose of 10 mg/kg on Day 8, 11 and 13 (three times in total). […] Measurement of the tumor volume was continued until Day 18. […] P value was expressed to four decimal places and the results satisfying P<0.05 (two-sided test) were determined as being significant.

CT26.WT-HER3 cells = assay: Antitumor study (3); type: in vivo, BALB/c mice; conditions: single administration, 10 mg/kg, Day 18
Experimental: Mouse: Female 6-week-old BALB/c mice (BALB/c AnNCrlCrlj) (bred by CHARLES RIVER LABORATORIES JAPAN, INC.) were subjected to experiments.
Measurement and calculation formula: the long diameter and short diameter of tumors were measured twice a week with an electronic digital caliper (CD15-CX, manufactured by Mitutoyo Corporation), and the tumor volumes (mm^3) were calculated. The calculation formula is shown below:
Tumor volume (mm^3)=0.5×Long diameter (mm)×[Short diameter (mm)]^2
Individuals having a tumor volume of beyond 3000 mm^3 were humanely killed from an ethical point of view for animal experiments.
The antibody-drug conjugate (3) (Drug-to-Antibody Ratio: 8) and an anti-SIRPα antibody (clone: 5C12) were diluted with PBS, and used for administration.
To mouse colorectal cancer cell line CT26.WT (CRL2638) purchased from the American Type Culture Collection, a human HER3 gene was transfected by use of a lentivirus vector to prepare CT26.WT-HER3 cells, which were put in use. The cells express a human HER3 protein on the cell membrane. CT26.WT-HER3 cells were suspended in saline, and 2.0×10^6 cells were subcutaneously inoculated into the right axilla of each of the BALB/c mice (Day 0). Seven days later, the mice were randomly grouped (Day 7). […] P value was expressed to four decimal places and the results satisfying P<0.05 (two-sided test) were determined as being significant.

mouse SIRPα antigen = target: T1, mouse SIRPα antigen (Mus musculus, UniProt P97797); assay: Binding affinity to mouse SIRPα antigen
T1 sequence (P97797 32-513): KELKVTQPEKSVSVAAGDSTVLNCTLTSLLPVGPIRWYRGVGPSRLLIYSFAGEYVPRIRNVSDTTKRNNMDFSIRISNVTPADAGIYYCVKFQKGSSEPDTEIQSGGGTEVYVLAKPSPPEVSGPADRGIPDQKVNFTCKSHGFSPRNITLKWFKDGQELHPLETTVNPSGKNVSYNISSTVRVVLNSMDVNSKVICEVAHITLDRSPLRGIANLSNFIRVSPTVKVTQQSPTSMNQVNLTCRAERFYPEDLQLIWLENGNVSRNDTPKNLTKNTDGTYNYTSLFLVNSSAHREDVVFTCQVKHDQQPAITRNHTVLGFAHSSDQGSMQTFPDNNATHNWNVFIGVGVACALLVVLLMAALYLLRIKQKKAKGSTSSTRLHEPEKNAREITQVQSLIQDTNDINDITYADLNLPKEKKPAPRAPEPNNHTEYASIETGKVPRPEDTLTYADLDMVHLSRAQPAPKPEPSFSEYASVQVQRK
Experimental: The lymph node cells and mouse myeloma SP2/0-ag14 cells (ATCC: CRL-1581) were fused in accordance with a polyethylene glycol method. The fused cells were suspended in HAT selective medium and cultured in accordance with the limiting dilution method. The hybridoma colonies that emerged were collected. In this manner, monoclonal hybridomas were prepared. The collected hybridoma colonies were cultured. Using the resultant hybridoma culture supernatant, an antibody-producing hybridoma was screened based on binding activity to a mouse SIRPα protein as an index. In this manner, clone: 5C12 was screened.

SIRPγ, sequence (Q9P1W8 29-387): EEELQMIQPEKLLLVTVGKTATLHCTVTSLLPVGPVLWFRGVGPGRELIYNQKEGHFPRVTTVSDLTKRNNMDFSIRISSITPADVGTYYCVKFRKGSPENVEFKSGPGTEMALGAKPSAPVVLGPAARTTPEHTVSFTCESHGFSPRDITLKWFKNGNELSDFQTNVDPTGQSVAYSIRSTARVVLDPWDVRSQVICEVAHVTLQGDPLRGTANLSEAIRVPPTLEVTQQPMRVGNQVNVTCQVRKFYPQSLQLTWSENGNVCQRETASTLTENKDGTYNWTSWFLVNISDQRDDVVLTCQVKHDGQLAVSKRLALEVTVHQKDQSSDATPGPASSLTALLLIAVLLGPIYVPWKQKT
SIRPβ1, sequence (O00241 30-398): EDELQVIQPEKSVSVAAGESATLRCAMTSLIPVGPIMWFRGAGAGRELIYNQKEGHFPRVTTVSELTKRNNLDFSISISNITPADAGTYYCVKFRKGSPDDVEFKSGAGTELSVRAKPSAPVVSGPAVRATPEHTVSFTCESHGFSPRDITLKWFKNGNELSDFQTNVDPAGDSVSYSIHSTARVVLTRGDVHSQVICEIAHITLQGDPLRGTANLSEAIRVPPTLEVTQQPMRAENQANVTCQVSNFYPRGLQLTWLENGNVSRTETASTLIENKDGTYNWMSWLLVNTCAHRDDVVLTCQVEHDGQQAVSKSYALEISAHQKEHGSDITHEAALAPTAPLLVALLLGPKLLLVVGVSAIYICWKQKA

O=P1(N(CCCl)CCCl)NCCCO1 (stereo not shown) [Cyclophosphamide]
ICD induction (cancer cells): inducing ICD

CC(=O)O[C@@]12CO[C@@H]1C[C@H](O)[C@@]1(C)C(=O)[C@H](O)C3=C(C)[C@@H](OC(=O)[C@H](O)[C@@H](NC(=O)OC(C)(C)C)c4ccccc4)C[C@@](O)([C@@H](OC(=O)c4ccccc4)[C@H]21)C3(C)C [Docetaxel]
ICD induction (cancer cells): not confirmed to induce ICD

CO[C@@]12[C@H](COC(N)=O)C3=C(C(=O)C(C)=C(N)C3=O)N1C[C@@H]1N[C@@H]12 [Mitomycin C]
ICD induction (cancer cells): not confirmed to induce ICD

O=C1[O][Pt]2([NH][C@@H]3CCCC[C@H]3[NH]2)[O]C1=O [Oxaliplatin]
ICD induction (cancer cells): inducing ICD

ADU-1805: anti-SIRPα IgG2 antibody of WO 2018/190719, SEQ ID NO: 28 and 29
binding to SIRPγ (SIRPγ): binds
binding to all 10 types of SIRPα variant [1]: binds

KWAR23: anti-SIRPα antibody of WO 2018/026600, SEQ ID NO: 26 and 27
binding to SIRPβ1 (SIRPβ1): binds
binding to SIRPγ (SIRPγ): binds
binding to all 10 types of SIRPα variant [1]: binds

OSE-172: anti-SIRPα IgG4Pro antibody of WO 2017/178653, SEQ ID NO: 24 and 25
binding to SIRPα V1 (SIRPα V1): binds
binding to SIRPβ1 (SIRPβ1): binds

B1: 5C12: rat-derived anti-mouse SIRPα surrogate antibody, heavy and light chain SEQ ID NOs: 30 and 31 (antibody, listed as Mus musculus)
heavy: MKHLWFFLLLVAAPRWVLSEVQLVESGGGLVQPGGSLKLSCAASGFTFSNYDMAWVRQAPTKGLEWVASISTRGGSSYYRDSVKGRFTVSRDNAKSTLYLQMDSLRSEDTATYYCARHPGDYFDYWGQGVMVTVSSAKTTPPSVYPLAPGSAAQTNSMVTLGCLVKGYFPEPVTVTWNSGSLSSGVHTFPAVLQSDLYTLSSSVTVPSSTWPSETVTCNVAHPASSTKVDKKIVPRDCGCKPCICTVPEVSSVFIFPPKPKDVLTITLTPKVTCVVVAISKDDPEVQFSWFVDDVEVHTAQTQPREEQFNSTFRSVSELPIMHQDWLNGKEFKCRVNSAAFPAPIEKTISKTKGRPKAPQVYTIPPPKEQMAKDKVSLTCMITDFFPEDITVEWQWNGQPAENYKNTQPIMDTDGSYFVYSKLNVQKSNWEAGNTFTCSVLHEGLHNHHTEKSLSHSPGK
light: MVLQTQVFISLLLWISGAYGDTVLTQSPALAVSPGERVTISCRASESVSTLIHWYQQKPGQQPKLLIYLTSHLESGVPARFSGSGSGTDFTLTIDPVEADDTATYYCQQSWTHPWTFGGGTKLELKRADAAPTVSIFPPSSEQLTSGGASVVCFLNNFYPKDINVKWKIDGSERQNGVLNSWTDQDSKDSTYSMSSTLTLTKDEYERHNSYTCEATHKTSTSPIVKSFNRNEC
antitumor effect (tumor volume) compared to the control group (4T1-hmHER2 cells): significantly stronger antitumor effect
antitumor effect (tumor volume) compared to the control group (CT26.WT-hTROP2 cells): partial antitumor effect
antitumor effect (tumor volume) compared to the control group (CT26.WT-HER3 cells): no therapeutic effect
binding affinity to mouse SIRPα antigen compared with that of hD13_H1L3 to a human SIRPα antigen (mouse SIRPα antigen): at the same level
binding affinity to the mouse SIRPα antigen (mouse SIRPα antigen): high binding affinity
